In paper PMC8556260:

What was measured:
[1] = molecular target: PIR91 ribosome-bound nascent chain (full-length PIR RNC, wild type) (UniProt O88900); test: cross-linking; titration of resuspended PIR91 RNCs with DnaK/DnaJ/GrpE (5:1:2, up to 50/10/25 µM), ADP, 50 mM KCl, 5 mM Mg2+, then EDC 80 mM, 30 min, 30 °C; fraction cross-linked to DnaK fitted to a two-state model; apparent
[2] = molecular target: PIR91 ribosome-bound nascent chain (full-length PIR RNC, wild type) (UniProt O88900); test: cross-linking; titration of resuspended PIR91 RNCs with TF (up to 40 µM), 10 min on ice, then EDC 80 mM, 30 min, 30 °C; standard resuspension buffer, 10 mM Mg(OAc)2, pH 7.0; fraction cross-linked fitted to a two-state model; apparent

Kd [1]	Kd [2]	Substance
109 µM	–	E. coli Hsp70 (DnaK), purified, ADP-bound, added as K/J/E mixture (from UniProt P0A6Y8 1-638) (natural protein)
–	3.8 µM	Trigger factor (TF), purified wild type (from UniProt P0A850 1-432) (natural protein)
